{"source": "patent US7655420B2", "about": "“Methods to increase or decrease bone density” (Celltech R & D, Inc., priority 2002, dated 2010)", "molecules": {"B1": {"name": "sclerostin: partially purified baculovirus-expressed human sclerostin protein, SOST gene product (SEQ ID NO:3); also made with a FLAG tag (protein, listed as Homo sapiens)", "chain": "MQLPLALCLVCLLVHTAFRVVEGQGWQAFKNDATEIIPELGEYPEPPPELENNKTMNRAENGGRPPHHPFETKDVSEYSCRELHFTRYVTDGPCRSAKPVTELVCSGQCGPARLLPNAIGRGKWWRPSGPDFRCIPDRYRAQRVQLLCPGGEAPRARKVRLVASCKCKRLTRFHNQSELKDFGTEAARPQKGRKPRPRARSAKANQAELENAY", "modifications": "optional FLAG tag"}}, "key": {"hMSC cells [1]": {"system": "hMSC cells", "experiment": "CellTiterGlo viability assay of hMSC cells", "format": "cell-based, human", "details": "Osteoblast-Inducing media, increasing amounts of sclerostin, 1 week, versus control", "experimental": "(§1) Human mesenchymal (hMSC) cells were plated in Osteoblast-inducing media (Biowhittaker's MSCGM medium supplemented with 100 nM dexamethasone, 50 μg/ml ascorbic acid, and 10 mM β-glycerophosphate) at a density of 10,000 cells/cm^2 in 96-well dishes.\nFor cell viability assays, cells were treated with a partially purified preparation of bacculovirus-expressed human sclerostin (0 to 20 μg/ml) or an equal volume of a protein preparation purified from Sf9 conditioned media (control) for 1 week. Sclerostin and control were refreshed upon media change. Cells were then lysed and processed using Promega's CellTiterGlo Luminescence Viability Assay."}, "[2]": {"system": "alkaline phosphatase (ALP) activity in hMSC cells", "experiment": "alkaline phosphatase activity in differentiating hMSC cells", "format": "cell-based, human", "details": "for basal alkaline phosphatase activity, increasing concentrations (dose-dependent) / ALP activity: hMSC cells, Osteoblast-Inducing media; for ALP activity: 7 days", "experimental": "(§2) hMSC cells were plated in 96-well tissue culture dishes at a density of 10,000 cells/cm^2 in Osteoblast-Inducing medium. Partially purified preparations of baculovirus-expressed sclerostin protein were prepared in sterile PBS using NAP-5 columns prior to use. Human sclerostin protein (0 to 30 μg/ml) or an equal volume of Sf9 conditioned media (Control) was added to cultures of hMSC cells at various times after plating (1 day, 8 days, 15 days, or 21 days). The effects of sclerostin on osteoblastic differentiation were assessed by measuring alkaline phosphatase activity (ALP, determined in cell layers using DEAA buffer (Pierce) containing 0.5% NP-40 and 10 mM p-nitrophenylphosphate), synthesis of collagen type I (Prolagen C ELISA), and calcium deposition for mineralization (colorimetric assay of acid lysates of cell layers, Sigma)."}, "hMSC cells [3]": {"system": "hMSC cells", "experiment": "apoptosis of hMSC cells by TUNEL staining", "format": "cell-based, human", "details": "Sclerostin 20 μg/ml, 24 hrs", "experimental": "as §1\nFor apoptosis determination by TUNEL staining, cells were treated for 24 hrs with a partially purified preparation of bacculovirus-expressed human sclerostin (20 μg/ml) or an equal volume of a protein preparation purified from Sf9 conditioned media (control). Cells were fixed with paraformaldehyde and processed using Roche's In Situ Cell Death Detection kit."}, "[4]": {"system": "type I collagen synthesis in hMSC cells", "experiment": "synthesis of collagen type I in hMSC cells (Prolagen C ELISA)", "format": "cell-based, human", "experimental": "FIG. 13 illustrates that partially purified preparations of human sclerostin reduce the synthesis of type I collagen by about 50% in cells treated with 10 μg/ml of sclerostin (p<0.001 to control). hMSC cells were cultured in Osteoblast-Inducing media and treated with partially-purified sclerostin protein or proteins purified from Sf9 conditioned media (Control) for 21 days. Sclerostin or Control at the indicated concentrations was added 8 days after plating.\nas §2"}, "hMSC cells [5]": {"system": "hMSC cells", "experiment": "apoptosis of hMSC cells by histone-associated DNA fragmentation ELISA", "format": "cell-based, human", "details": "increasing amounts of sclerostin, 24 hrs", "experimental": "as §1\n(§3) For apoptosis assays, cells were treated with sclerostin or commercially available preparations of the BMP antagonists noggin, chordin, gremlin or twisted gastrulation (Tsg) for 24 hours prior to assay for caspase activity. In some experiments, cells were treated for various times with a partially purified preparation of baculovirus-expressed human sclerostin (0 to 30 μg/ml) or an equal volume of a protein preparation purified from Sf9 conditioned media (control) in the absence or presence of Calbiochem's caspase inhibitors. Cells were harvested and processed for apoptosis assays using the Homogeneous Caspase ELISA (Roche) or Cell Death (Histone-Associated DNA Fragmentation, Roche)."}, "[6]": {"system": "alkaline phosphatase (ALP) activity in hMSC cells", "experiment": "alkaline phosphatase activity in differentiating hMSC cells", "format": "cell-based, human", "details": "BMP-6 500 ng/ml plus increasing concentrations of sclerostin-Flag protein"}, "osteoblastic markers": {"system": "osteoblastic markers", "experiment": "RT-PCR of osteoblastic markers in differentiating hMSC cells treated with sclerostin", "format": "cell-based, human", "details": "sclerostin 10 μg/ml, 40 hrs", "experimental": "FIG. 14 illustrates that human sclerostin protein decreases expression of osteoblastic markers in cultures of differentiating hMSC cells. hMSC cells were plated in Osteoblast-Inducing media. After 3 days, partially purified sclerostin protein (10 μg/ml) or proteins purified from Sf9 conditioned media (control) were added. Cells were harvested after 40 hrs and RNA was prepared for RT-PCR analyses of osteoblastic markets.\nTo determine the effect of sclerostin protein on the expression of osteoblastic markers in cultures of differentiating hMSC cells, RNA was isolated after a 40-hr treatment and analyzed by RT-PCR (FIG. 14)."}, "[7]": {"system": "mineralization (calcium deposition) in hMSC cells", "experiment": "mineralization (calcium deposition) in hMSC cells", "format": "cell-based, human", "details": "for mineralization (calcium deposition), increasing concentrations: hMSC cells, Osteoblast-Inducing media, protein added at 8 days, another 13 days", "experimental": "FIG. 12B illustrates that human sclerostin decreases mineralization (calcium deposition) in hMSC cells in a dose-dependent manner. hMSC cells were plated in Osteoblast-Inducing media. Partially-purified sclerostin protein or proteins purified from Sf9 conditioned media (control) were added the next day. Cultures were maintained for 8 days, treated with sclerostin or control proteins and maintained for another 13 days before testing for mineralization. As illustrated, increasing concentrations of sclerostin give rise to diminished mineralization.\nas §2"}, "[8]": {"system": "caspase activity in hMSC cells", "experiment": "apoptosis of hMSC cells by caspase activity (Homogeneous Caspase ELISA)", "format": "cell-based, human", "details": "for time after treatment for which caspase activity remained elevated: hMSC cells treated with sclerostin; for caspase activity: hMSC in osteoblast-inducing media, 20 μg/ml sclerostin or other protein, 24 hours", "experimental": "as §1, §3"}, "[9]": {"system": "alkaline phosphatase activity in primary human osteoblasts", "experiment": "histochemical staining for alkaline phosphatase in primary human osteoblasts", "format": "cell-based", "details": "primary human osteoblasts in Inducing media, Sclerostin 20 μg/ml, 7 days", "experimental": "Primary human osteoblasts were grown in regular growth media or in Inducing media (to promote differentiation) and then treated with Sclerostin (20 μg/ml) or Control (protein purified from Sf9 conditioned media) for 7 days prior to histochemical staining for alkaline phosphatase activity. Osteoblasts grown in regular growth media expressed low, basal levels of ALP (“No Treatment,” far right panel)."}, "[10]": {"details": "hMSC cells treated with about 10 to 15 μg/ml of the protein, p<0.001 to control"}}, "note": "Entries after “also recorded” stand apart in the source; their conditions may differ."}
{"molecule": "B1", "values": [{"measurement": "viability of hMSC cells", "setting": "hMSC cells [1]", "result": "significantly reduced; also recorded: decreases the viability"}, {"measurement": "decrease of alkaline phosphatase activity", "setting": "[2]; [10]", "result": "about 50%"}, {"measurement": "basal alkaline phosphatase activity, increasing concentrations (dose-dependent)", "setting": "[2]", "result": "significantly reduced; also recorded: decreased"}, {"measurement": "ALP activity", "setting": "[2]; protein at 1 μg/ml", "result": "decreased"}, {"measurement": "ALP activity", "setting": "[2]; protein at 5 μg/ml", "result": "decreased"}, {"measurement": "basal alkaline phosphatase activity, increasing concentrations (dose-dependent)", "setting": "[2]; listed as Sclerostin", "result": "decreased"}, {"measurement": "basal alkaline phosphatase activity, increasing concentrations (dose-dependent)", "setting": "[2]; listed as human sclerostin", "result": "decreases"}, {"measurement": "Tunel staining for apoptotic nuclei", "setting": "hMSC cells [3]", "result": "Increased staining for apoptotic nuclei"}, {"measurement": "Tunel staining for apoptotic nuclei", "setting": "hMSC cells [3]; listed as human sclerostin", "result": "undergo apoptosis"}, {"measurement": "reduction of synthesis of type I collagen", "setting": "[4]; hMSC cells, 10 μg/ml of sclerostin, 21 days, p<0.001 to control", "result": "about 50%"}, {"measurement": "synthesis of collagen type I, dose dependence", "setting": "[4]; hMSC cultures", "result": "decreased in a dose-dependent manner"}, {"measurement": "amounts of histone-DNA fragments", "setting": "hMSC cells [5]", "result": "significantly elevated; also recorded: greater amounts of histone-DNA fragments"}, {"measurement": "BMP-6 induced alkaline phosphatase activity", "setting": "[6]", "result": "reduced; also recorded: decreased"}, {"measurement": "RNA levels for osteoblast phenotypic markers PTHr, Type I collagen, BMP-2 and BMP-6", "setting": "osteoblastic markers", "result": "significantly reduced"}, {"measurement": "RNA levels of markers for adipocytes (PPARγ2) or undifferentiated mesenchymal cells (endoglin)", "setting": "osteoblastic markers", "result": "not affected"}, {"measurement": "decrease of mineral deposition", "setting": "[7]; [10]", "result": "about 50%"}, {"measurement": "mineralization (calcium deposition), increasing concentrations", "setting": "[7]; listed as Sclerostin", "result": "decreased"}, {"measurement": "mineralization (calcium deposition), increasing concentrations", "setting": "[7]; listed as human sclerostin", "result": "decreases"}, {"measurement": "time after treatment for which caspase activity remained elevated", "setting": "[8]; listed as Sclerostin", "result": "up to 72 hrs"}, {"measurement": "time after treatment for which caspase activity remained elevated", "setting": "[8]; listed as human sclerostin", "result": 72, "unit": "h"}, {"measurement": "caspase activity, increasing amounts (dose-dependent)", "setting": "[8]; hMSC cells, 24 hrs", "result": "significantly elevated; also recorded: increased caspase activity"}, {"measurement": "caspase activity", "setting": "[8]", "result": "significantly increased"}, {"measurement": "caspase activity", "setting": "[8]; listed as Sclerostin", "result": "increased"}, {"measurement": "amount of ALP expressed (histochemical stain)", "setting": "[9]", "result": "marked decrease"}]}
